The values below come from US20110166062A1 (INDIANA UNIVERSITY RESEARCH AND TECHNOLOGY, published 2011).

T1: GIP receptor (UniProt P48546 22-466)
T1 sequence (looked up): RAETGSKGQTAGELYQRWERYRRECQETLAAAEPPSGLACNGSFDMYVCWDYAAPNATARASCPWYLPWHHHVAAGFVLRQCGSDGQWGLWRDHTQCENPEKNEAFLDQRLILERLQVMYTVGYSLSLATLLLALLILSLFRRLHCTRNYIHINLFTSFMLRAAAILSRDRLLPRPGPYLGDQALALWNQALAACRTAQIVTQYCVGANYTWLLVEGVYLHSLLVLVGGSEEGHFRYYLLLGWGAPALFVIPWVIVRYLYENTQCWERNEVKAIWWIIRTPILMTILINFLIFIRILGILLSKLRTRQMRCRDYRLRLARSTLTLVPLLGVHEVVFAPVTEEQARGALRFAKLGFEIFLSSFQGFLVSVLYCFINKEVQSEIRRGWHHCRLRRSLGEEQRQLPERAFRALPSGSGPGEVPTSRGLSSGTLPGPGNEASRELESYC

B1: mt-166 (peptide)
peptide: Y[dA]QGTFTSDYSIYLDEQAAKEFVNWLLAGGPSSGAPPPSC-NH2
modifications: lactam 16-20; N-terminus assumed
SMILES: CC[C@H](C)[C@H](NC(=O)[C@H](CO)NC(=O)[C@H](Cc1ccc(O)cc1)NC(=O)[C@H](CC(=O)O)NC(=O)[C@H](CO)NC(=O)[C@@H](NC(=O)[C@H](Cc1ccccc1)NC(=O)[C@@H](NC(=O)CNC(=O)[C@H](CCC(N)=O)NC(=O)[C@@H](C)NC(=O)[C@@H](N)Cc1ccc(O)cc1)[C@@H](C)O)[C@@H](C)O)C(=O)N[C@@H](Cc1ccc(O)cc1)C(=O)N[C@@H](CC(C)C)C(=O)N[C@@H](CC(=O)O)C(=O)N[C@H]1CCC(=O)NCCCC[C@@H](C(=O)N[C@@H](CCC(=O)O)C(=O)N[C@@H](Cc2ccccc2)C(=O)N[C@H](C(=O)N[C@@H](CC(N)=O)C(=O)N[C@@H](Cc2c[nH]c3ccccc23)C(=O)N[C@@H](CC(C)C)C(=O)N[C@@H](CC(C)C)C(=O)N[C@@H](C)C(=O)NCC(=O)NCC(=O)N2CCC[C@H]2C(=O)N[C@@H](CO)C(=O)N[C@@H](CO)C(=O)NCC(=O)N[C@@H](C)C(=O)N2CCC[C@H]2C(=O)N2CCC[C@H]2C(=O)N2CCC[C@H]2C(=O)N[C@@H](CO)C(=O)N[C@@H](CS)C(N)=O)C(C)C)NC(=O)[C@H](C)NC(=O)[C@H](C)NC(=O)[C@H](CCC(N)=O)NC1=O
B2: mt-162 (peptide)
peptide: Y[Aib]QGTFTSDYSYYLDEQAVKEFVNWLIAGGPSSGAPPPS-NH2
modifications: lactam 16-20; N-terminus assumed
SMILES: CC[C@H](C)[C@H](NC(=O)[C@H](CC(C)C)NC(=O)[C@H](Cc1c[nH]c2ccccc12)NC(=O)[C@H](CC(N)=O)NC(=O)[C@@H](NC(=O)[C@H](Cc1ccccc1)NC(=O)[C@H](CCC(=O)O)NC(=O)[C@@H]1CCCCNC(=O)CC[C@H](NC(=O)[C@H](CC(=O)O)NC(=O)[C@H](CC(C)C)NC(=O)[C@H](Cc2ccc(O)cc2)NC(=O)[C@H](Cc2ccc(O)cc2)NC(=O)[C@H](CO)NC(=O)[C@H](Cc2ccc(O)cc2)NC(=O)[C@H](CC(=O)O)NC(=O)[C@H](CO)NC(=O)[C@@H](NC(=O)[C@H](Cc2ccccc2)NC(=O)[C@@H](NC(=O)CNC(=O)[C@H](CCC(N)=O)NC(=O)C(C)(C)NC(=O)[C@@H](N)Cc2ccc(O)cc2)[C@@H](C)O)[C@@H](C)O)C(=O)N[C@@H](CCC(N)=O)C(=O)N[C@@H](C)C(=O)N[C@@H](C(C)C)C(=O)N1)C(C)C)C(=O)N[C@@H](C)C(=O)NCC(=O)NCC(=O)N1CCC[C@H]1C(=O)N[C@@H](CO)C(=O)N[C@@H](CO)C(=O)NCC(=O)N[C@@H](C)C(=O)N1CCC[C@H]1C(=O)N1CCC[C@H]1C(=O)N1CCC[C@H]1C(=O)N[C@@H](CO)C(N)=O
B3: mt-163 (peptide)
peptide: YSQGTFTSDYSIYLDEQAAKEFVNWLLAG-NH2
modifications: lactam 16-20; N-terminus assumed
SMILES: CC[C@H](C)[C@H](NC(=O)[C@H](CO)NC(=O)[C@H](Cc1ccc(O)cc1)NC(=O)[C@H](CC(=O)O)NC(=O)[C@H](CO)NC(=O)[C@@H](NC(=O)[C@H](Cc1ccccc1)NC(=O)[C@@H](NC(=O)CNC(=O)[C@H](CCC(N)=O)NC(=O)[C@H](CO)NC(=O)[C@@H](N)Cc1ccc(O)cc1)[C@@H](C)O)[C@@H](C)O)C(=O)N[C@@H](Cc1ccc(O)cc1)C(=O)N[C@@H](CC(C)C)C(=O)N[C@@H](CC(=O)O)C(=O)N[C@H]1CCC(=O)NCCCC[C@@H](C(=O)N[C@@H](CCC(=O)O)C(=O)N[C@@H](Cc2ccccc2)C(=O)N[C@H](C(=O)N[C@@H](CC(N)=O)C(=O)N[C@@H](Cc2c[nH]c3ccccc23)C(=O)N[C@@H](CC(C)C)C(=O)N[C@@H](CC(C)C)C(=O)N[C@@H](C)C(=O)NCC(N)=O)C(C)C)NC(=O)[C@H](C)NC(=O)[C@H](C)NC(=O)[C@H](CCC(N)=O)NC1=O
B4: mt-164 (peptide)
peptide: Y[Aib]QGTFTSDYSIYLDEQAAKEFVNWLLAG-NH2
modifications: lactam 16-20; N-terminus assumed
SMILES: CC[C@H](C)[C@H](NC(=O)[C@H](CO)NC(=O)[C@H](Cc1ccc(O)cc1)NC(=O)[C@H](CC(=O)O)NC(=O)[C@H](CO)NC(=O)[C@@H](NC(=O)[C@H](Cc1ccccc1)NC(=O)[C@@H](NC(=O)CNC(=O)[C@H](CCC(N)=O)NC(=O)C(C)(C)NC(=O)[C@@H](N)Cc1ccc(O)cc1)[C@@H](C)O)[C@@H](C)O)C(=O)N[C@@H](Cc1ccc(O)cc1)C(=O)N[C@@H](CC(C)C)C(=O)N[C@@H](CC(=O)O)C(=O)N[C@H]1CCC(=O)NCCCC[C@@H](C(=O)N[C@@H](CCC(=O)O)C(=O)N[C@@H](Cc2ccccc2)C(=O)N[C@H](C(=O)N[C@@H](CC(N)=O)C(=O)N[C@@H](Cc2c[nH]c3ccccc23)C(=O)N[C@@H](CC(C)C)C(=O)N[C@@H](CC(C)C)C(=O)N[C@@H](C)C(=O)NCC(N)=O)C(C)C)NC(=O)[C@H](C)NC(=O)[C@H](C)NC(=O)[C@H](CCC(N)=O)NC1=O
B5: mt-165 (peptide)
peptide: Y[Aib]QGTFTSDYSIYLDEQAAKEFVNWLLAGGPSSGAPPPSC-NH2
modifications: lactam 16-20; N-terminus assumed
SMILES: CC[C@H](C)[C@H](NC(=O)[C@H](CO)NC(=O)[C@H](Cc1ccc(O)cc1)NC(=O)[C@H](CC(=O)O)NC(=O)[C@H](CO)NC(=O)[C@@H](NC(=O)[C@H](Cc1ccccc1)NC(=O)[C@@H](NC(=O)CNC(=O)[C@H](CCC(N)=O)NC(=O)C(C)(C)NC(=O)[C@@H](N)Cc1ccc(O)cc1)[C@@H](C)O)[C@@H](C)O)C(=O)N[C@@H](Cc1ccc(O)cc1)C(=O)N[C@@H](CC(C)C)C(=O)N[C@@H](CC(=O)O)C(=O)N[C@H]1CCC(=O)NCCCC[C@@H](C(=O)N[C@@H](CCC(=O)O)C(=O)N[C@@H](Cc2ccccc2)C(=O)N[C@H](C(=O)N[C@@H](CC(N)=O)C(=O)N[C@@H](Cc2c[nH]c3ccccc23)C(=O)N[C@@H](CC(C)C)C(=O)N[C@@H](CC(C)C)C(=O)N[C@@H](C)C(=O)NCC(=O)NCC(=O)N2CCC[C@H]2C(=O)N[C@@H](CO)C(=O)N[C@@H](CO)C(=O)NCC(=O)N[C@@H](C)C(=O)N2CCC[C@H]2C(=O)N2CCC[C@H]2C(=O)N2CCC[C@H]2C(=O)N[C@@H](CO)C(=O)N[C@@H](CS)C(N)=O)C(C)C)NC(=O)[C@H](C)NC(=O)[C@H](C)NC(=O)[C@H](CCC(N)=O)NC1=O
B6: mt-158 (peptide)
peptide: Y[Aib]QGTFTSDYSIYLDEQAAKEFVCWLLAGGPSSGAPPPS-NH2
modifications: lactam 16-20; N-terminus assumed
SMILES: CC[C@H](C)[C@H](NC(=O)[C@H](CO)NC(=O)[C@H](Cc1ccc(O)cc1)NC(=O)[C@H](CC(=O)O)NC(=O)[C@H](CO)NC(=O)[C@@H](NC(=O)[C@H](Cc1ccccc1)NC(=O)[C@@H](NC(=O)CNC(=O)[C@H](CCC(N)=O)NC(=O)C(C)(C)NC(=O)[C@@H](N)Cc1ccc(O)cc1)[C@@H](C)O)[C@@H](C)O)C(=O)N[C@@H](Cc1ccc(O)cc1)C(=O)N[C@@H](CC(C)C)C(=O)N[C@@H](CC(=O)O)C(=O)N[C@H]1CCC(=O)NCCCC[C@@H](C(=O)N[C@@H](CCC(=O)O)C(=O)N[C@@H](Cc2ccccc2)C(=O)N[C@H](C(=O)N[C@@H](CS)C(=O)N[C@@H](Cc2c[nH]c3ccccc23)C(=O)N[C@@H](CC(C)C)C(=O)N[C@@H](CC(C)C)C(=O)N[C@@H](C)C(=O)NCC(=O)NCC(=O)N2CCC[C@H]2C(=O)N[C@@H](CO)C(=O)N[C@@H](CO)C(=O)NCC(=O)N[C@@H](C)C(=O)N2CCC[C@H]2C(=O)N2CCC[C@H]2C(=O)N2CCC[C@H]2C(=O)N[C@@H](CO)C(N)=O)C(C)C)NC(=O)[C@H](C)NC(=O)[C@H](C)NC(=O)[C@H](CCC(N)=O)NC1=O

What is called EC50 is the concentration that produces a half-maximal response. Higher therefore signals a need for much substance.

Bridges are numbered along the chain shown (N, C = ends). Where no end group is shown, it is not given here. [ ]: non-standard residue; d: D form. Aib = CC(C)(N)C(=O)O

One assay deals with glucagon receptor (UniProt P47871 26-477, limits assumed). Briefly: cell-based or functional assay.
Chain of glucagon receptor (P47871 26-477 limits assumed): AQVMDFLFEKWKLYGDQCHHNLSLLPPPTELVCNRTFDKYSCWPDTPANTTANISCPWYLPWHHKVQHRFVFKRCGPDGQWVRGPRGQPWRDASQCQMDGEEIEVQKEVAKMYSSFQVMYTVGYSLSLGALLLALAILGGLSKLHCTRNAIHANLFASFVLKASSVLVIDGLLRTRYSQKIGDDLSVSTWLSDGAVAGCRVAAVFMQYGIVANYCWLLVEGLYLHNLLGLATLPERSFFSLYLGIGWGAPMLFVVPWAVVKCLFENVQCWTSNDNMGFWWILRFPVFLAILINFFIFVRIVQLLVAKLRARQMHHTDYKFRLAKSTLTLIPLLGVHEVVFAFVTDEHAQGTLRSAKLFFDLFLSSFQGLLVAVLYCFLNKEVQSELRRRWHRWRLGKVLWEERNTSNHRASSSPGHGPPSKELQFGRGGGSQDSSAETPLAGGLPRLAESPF
Take B1: the “EC50” value was 0.875 nM and the relative activity came to 9.83%.
As for B2, a half-maximal effect (EC50) was put at 7 nM and the relative activity stood at 0.97%.
As for B3, a half-maximal effect (EC50) was put at 0.027 nM and the relative activity amounted to 252%.
For B4, in that order: 0.151 nM and 110%.
As to B5, the “EC50” value was determined as 0.489 nM and the relative activity came out at 18.8%.
Consider B6, for which the “EC50” value amounted to 1.05 nM and the relative activity turned out to be 14.9%.

The next assay addresses T1, GIP receptor. Put plainly: cell-based or functional assay.
Turning to B1, the “EC50” value turned out to be 0.32 nM and the relative activity was 5.94%.
For B2, the response was half-maximal at 0.136 nM (EC50) and the relative activity amounted to 25.7%.
Turning to B3, the “EC50” value was 0.74 nM and the relative activity came to 4.73%.
For B4, in that order: 0.164 nM and 16.5%.
As to B5, the “EC50” value came to 0.074 nM and the relative activity is 27%.
As to B6, the “EC50” value was 0.174 nM and the relative activity stood at 17.8%.

The target in a further assay is GLP-1 receptor (UniProt P43220 24-463, limits assumed). Put plainly: cell-based or functional assay.
B1: the “EC50” value amounted to 0.134 nM and the relative activity was 26.9%.
For B2 the same measures were 0.011 nM and 109%.
With B3, the concentration for a half-maximal effect (EC50) is 0.04 nM and the relative activity came to 30%.
As to B4, the “EC50” value was 0.046 nM and the relative activity worked out at 56.5%.
Consider B5, for which the concentration for a half-maximal effect (EC50) was 0.023 nM and the relative activity was 148%.
For B6, in that order: 0.034 nM and 103%.
